Experimental data as given in IntAct's records for PubMed 26918958.

B1: Latent-transforming growth factor beta-binding protein 4 (Homo sapiens), Q8N2S1-1 (parent)
chain: MPRPGTSGRRPLLLVLLLPLFAAATSAASPSPSPSQVVEVPGVPSRPASVAVCRCCPGQTSRRSRCIRAFCRVRSCQPKKCAGPQRCLNPVPAVPSPSPSVRKRQVSLNWQPLTLQEARALLKRRRPRGPGGRGLLRRRPPQRAPAGKAPVLCPLICHNGGVCVKPDRCLCPPDFAGKFCQLHSSGARPPAPAVPGLTRSVYTMPLANHRDDEHGVASMVSVHVEHPQEASVVVHQVERVSGPWEEADAEAVARAEAAARAEAAAPYTVLAQSAPREDGYSDASGFGYCFRELRGGECASPLPGLRTQEVCCRGAGLAWGVHDCQLCSERLGNSERVSAPDGPCPTGFERVNGSCEDVDECATGGRCQHGECANTRGGYTCVCPDGFLLDSSRSSCISQHVISEAKGPCFRVLRDGGCSLPILRNITKQICCCSRVGKAWGRGCQLCPPFGSEGFREICPAGPGYHYSASDLRYNTRPLGQEPPRVSLSQPRTLPATSRPSAGFLPTHRLEPRPEPRPDPRPGPELPLPSIPAWTGPEIPESGPSSGMCQRNPQVCGPGRCISRPSGYTCACDSGFRLSPQGTRCIDVDECRRVPPPCAPGRCENSPGSFRCVCGPGFRAGPRAAECLDVDECHRVPPPCDLGRCENTPGSFLCVCPAGYQAAPHGASCQDVDECTQSPGLCGRGACKNLPGSFRCVCPAGFRGSACEEDVDECAQEPPPCGPGRCDNTAGSFHCACPAGFRSRGPGAPCQDVDECARSPPPCTYGRCENTEGSFQCVCPMGFQPNTAGSECEDVDECENHLACPGQECVNSPGSFQCRTCPSGHHLHRGRCTDVDECSSGAPPCGPHGHCTNTEGSFRCSCAPGYRAPSGRPGPCADVNECLEGDFCFPHGECLNTDGSFACTCAPGYRPGPRGASCLDVDECSEEDLCQSGICTNTDGSFECICPPGHRAGPDLASCLDVDECRERGPALCGSQRCENSPGSYRCVRDCDPGYHAGPEGTCDDVDECQEYGPEICGAQRCENTPGSYRCTPACDPGYQPTPGGGCQDVDECRNRSFCGAHAVCQNLPGSFQCLCDQGYEGARDGRHCVDVNECETLQGVCGAALCENVEGSFLCVCPNSPEEFDPMTGRCVPPRTSAGTFPGSQPQAPASPVLPARPPPPPLPRRPSTPRQGPVGSGRRECYFDTAAPDACDNILARNVTWQECCCTVGEGWGSGCRIQQCPGTETAEYQSLCPHGRGYLAPSGDLSLRRDVDECQLFRDQVCKSGVCVNTAPGYSCYCSNGYYYHTQRLECIDNDECADEEPACEGGRCVNTVGSYHCTCEPPLVLDGSQRRCVSNESQSLDDNLGVCWQEVGADLVCSHPRLDRQATYTECCCLYGEAWGMDCALCPAQDSDDFEALCNVLRPPAYSPPRPGGFGLPYEYGPDLGPPYQGLPYGPELYPPPALPYDPYPPPPGPFARREAPYGAPRFDMPDFEDDGGPYGESEAPAPPGPGTRWPYRSRDTRRSFPEPEEPPEGGSYAGSLAEPYEELEAEECGILDGCTNGRCVRVPEGFTCRCFDGYRLDMTRMACVDINECDEAEAASPLCVNARCLNTDGSFRCICRPGFAPTHQPHHCAPARPRA

Variants of: B1
Conditions: with tgfb1_human TGFB1, P01137
tgfb1_human TGFB1, P01137, sequence (P01137 whole entry): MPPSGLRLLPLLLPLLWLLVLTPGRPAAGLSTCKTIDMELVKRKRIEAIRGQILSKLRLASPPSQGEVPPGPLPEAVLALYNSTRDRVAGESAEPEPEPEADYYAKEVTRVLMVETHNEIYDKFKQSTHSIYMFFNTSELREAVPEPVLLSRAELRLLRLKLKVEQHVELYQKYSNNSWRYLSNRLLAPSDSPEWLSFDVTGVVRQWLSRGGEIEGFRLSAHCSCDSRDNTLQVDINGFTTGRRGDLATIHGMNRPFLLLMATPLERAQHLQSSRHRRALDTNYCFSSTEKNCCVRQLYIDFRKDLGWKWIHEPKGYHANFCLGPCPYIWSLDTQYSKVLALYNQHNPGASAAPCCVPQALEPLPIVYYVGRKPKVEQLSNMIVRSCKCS

Row | effect of a mutation on the interaction | Variant
1 | with no effect | V194I;T787A;T820A;T1141M
2 | with no effect | T1141M
